Read-outs that look alike come from different tables or passages of the source.
Assays:
[1] = Stability of radioligands in PBS buffer (radio-HPLC); format: physicochemical
Protocol: The purpose of this experiment was to test the stability of the radioligands under buffer conditions simulating the physiological environment. This stability is a prerequisite for further animal experiments.
(§1) 1. ^68Ga-SDYD01: ^68Ga-SDYD01 was added to PBS buffer (pH=7.4) and incubated at 37° C. The mixture samples were taken for radio-HPLC analysis after 0.5 hours, 1 hour, and 2 hours of incubation. The stability of ^68Ga-SDYD01 in PBS buffer: the radiochemical purities of ^68Ga-SDYD01 after incubation in PBS for 0.5 hours, 1 hour, and 2 hours were 98%, 97%, and 97%, respectively (FIG. 4).
(§2) 2. ^177Lu-SDYD01: ^177Lu-SDYD01 was added to PBS buffer (pH=7.4) and incubated at 37° C. The mixture samples were taken for radio-HPLC analysis after 24 hours, 48 hours, and 120 hours of incubation. The stability of ^177Lu-SDYD01 in PBS buffer: the radiochemical purities of ^177Lu-SDYD01 after incubation in PBS for 24 hours, 48 hours, and 120 hours were 97%, 96%, and 94%, respectively (FIG. 5).
as §1, with “^68Ga-SDYD02: ^68Ga-SDYD02” for “^68Ga-SDYD01: ^68Ga-SDYD01”, “^68Ga-SDYD02” for “^68Ga-SDYD01”, “96%, 95%” for “98%, 97%,”, “93%,” for “97%,”, “10).” for “4).”
as §2, with “^177Lu-SDYD02: ^177Lu-SDYD02” for “^177Lu-SDYD01: ^177Lu-SDYD01”, “^177Lu-SDYD02” for “^177Lu-SDYD01”, “95%, 91%” for “97%, 96%,”, “87%,” for “94%,”, “11).” for “5).”
as §1, with “1. ^68Ga-SDYD05: ^68Ga-SDYD05” for “1. ^68Ga-SDYD01: ^68Ga-SDYD01”, “of ^68Ga-SDYD05” for “of ^68Ga-SDYD01”, “98%, 96%” for “98%, 97%,”, “and 95%,” for “and 97%,”, “(FIG. 16).” for “(FIG. 4).”
as §2, with “^177Lu-SDYD05: ^177Lu-SDYD05” for “^177Lu-SDYD01: ^177Lu-SDYD01”, “^177Lu-SDYD05” for “^177Lu-SDYD01”, “97%, 96% and” for “97%,”, “96%,” for “96%, and 94%,”, “17).” for “5).”
1. ^68Ga-SDYD06: ^68Ga-SDYD06 was added to PBS buffer (pH=7.4) and incubated at 37° C. The mixture samples were taken for radio-HPLC analysis after 0.5, 1, and 2 hours of incubation. The stability of ^68Ga-SDYD06 in PBS buffer: the radiochemical purities of ^68Ga-SDYD06 after incubation in PBS for 0.5 hours, 1 hour, and 2 hours were 96%, 94% and 93%, respectively (FIG. 22).
2. ^177Lu-SDYD06: ^177Lu-SDYD06 was added to PBS buffer (pH=7.4) and incubated at 37° C. The mixture samples were taken for radio-HPLC analysis after 24 hours, 48 hours, and 120 hours of incubation.
1. ^68Ga-SDYD03: ^68Ga-SDYD03 was added to PBS buffer (pH=7.4) and incubated at 37° C. The mixture samples were taken for radio-HPLC analysis after 0.5 hours, 1 hour, and 2 hours of incubation. The stability of ^68Ga-SDYD03 PBS in PBS buffer: the radiochemical purities of ^68Ga-SDYD03 after incubation in PBS for 0.5 hours, 1 hour, and 2 hours were 96%, 96% and 95%, respectively (FIG. 27).
as §2, with “^177Lu-SDYD03: ^177Lu-SDYD03” for “^177Lu-SDYD01: ^177Lu-SDYD01”, “^177Lu-SDYD03” for “^177Lu-SDYD01”, “are 99%, 96%” for “were 97%, 96%,”, “28). […]” for “5).”

[2] = Small animal PET imaging and biodistribution study; format: in vivo, NSG mice; conditions: NSG, mouse, in vivo, iv, 7.4 MBq, total radioactivity
Protocol: (§3) Eleven NSG mice bearing subcutaneous xenograft tumors (U87 MG cells), with tumor sizes approximately 150 mm^3, were used. The mice were intravenously injected via the tail vein with approximately 7.4 MBq of ^68Ga-labeled SDYD01, SDYD02, SDYD03. SDYD04, SDYD05, SDYD06, SDYD07, SDYD08 or SDYD07-1 compounds, or with ^[…]-labeled FAPI-04 or FAP2286 compounds as tracers. Micro PET/CT imaging was performed at 30 min, 60 min, and 120 min post-injection. Static images were acquired in 3D mode for 20 minutes. Reconstruction was performed using the OSEM3D/MAP method to obtain attenuation-corrected PET/CT fusion images.
(§4) NSG mice bearing subcutaneous xenograft tumors (U87 MG cells) were divided into 3 groups, with 11 mice in each group. They were intravenously injected via the tail vein with ^68Ga-labeled SDYD01, SDYD02, SDYD03. SDYD04, SDYD05, SDYD06. SDYD07, SDYD08, or SDYD07-1 compounds, or with ^68Ga-labeled FAPI-04 or FAP2286 compounds as tracers. Tumor-bearing mice injected with ^68Ga-labeled compounds SDYD01, SDYD02, SDYD03, SDYD04, SDYD05, SDYD06, FAPI-04, as well as 68Ga-labeled compounds FAPI-04 and FAP2286, were euthanized at 30 min. 60 min, and 120 min, respectively, for each group. Tumor-bearing mice injected with ^68Ga-labeled compounds SDYD07, SDYD08, and SDYD07-1 were euthanized at 30 min, 60 min, and 90 min, respectively, for each group. Blood, tumors, and other major organs and tissues were collected, weighed, and measured for radioactivity. After radioactive decay correction, the standardized uptake value (SUV) and percentage injected dose per gram of tissue (% ID/g) were calculated. In these figures, (a) represents the PET/CT imaging results, (b) represents the biodistribution results, and (c) represents the relative ratios of radioactive uptake in tumor versus normal tissues.

[3] = test system: subcutaneous xenograft tumors (U87 MG cells); assay: Small animal PET imaging and biodistribution study; format: in vivo, NSG mice
Protocol: as §3, §4

[4] = absolute uptake value in the tumor

Row | Compound | stability in PBS buffer (in words) [1] | tissue uptake at 0.5 h [2, 4] [%ID/g] | tissue uptake at 1 h [2, 4] [%ID/g] | radioactive uptake in the tumor sites (in words) ([3]; mouse, in vivo) | stability in PBS buffer (in words) ([1]; PBS buffer pH=7.4, 37° C.) | tissue uptake at 0.5 h ([2]; 30 minutes post-injection, read-out: absolute uptake value in the tumor) [%ID/g] | tissue uptake at 1 h ([2]; 60 minutes post-injection, read-out: absolute uptake value in the tumor) [%ID/g] | radioactive uptake in the tumor sites (in words) ([3]; tail vein injection, U87 MG tumor-bearing NSG mice) | tissue uptake at 2 h [2, 4] [%ID/g] | radioactive uptake in non-target organs (in words) ([3]; mouse, in vivo) | target/non-target ratios (in words) ([3]; mouse, in vivo) | tumor uptake and tumor retention time, comparison (in words) ([3]; mouse, in vivo)
1 | CCCCCC(=O)N[C@@H]1CSCc2cc(CSCCNC(=O)[C@@H](CCCCNC(=O)CN3CCN(CC(=O)O)CCN(CC(=O)O)CCN(CC(=O)O)CC3)NC(=O)COCCOCCNC(=O)COCCOCCNC(=O)CCN3C(=O)CC(SCCNC(=O)CCC(=O)N[C@@H](CCCNC(=N)N)C(=O)N[C@@H](CCCNC(=N)N)C(=O)N[C@@H](Cc4ccc5ccccc5c4)C(=O)N[C@@H]4CSSC[C@@H](C(=O)N[C@@H](CCCNC(=N)N)C(N)=O)NC(=O)[C@H](CCCNC(N)=O)NC(=O)[C@H](CCCNC(=N)N)NC(=O)[C@H](Cc5ccc(O)cc5)NC(=O)[C@@H]5CCCN5C(=O)[C@H](CCCCN)NC(=O)[C@H](CCCCN)NC(=O)[C@H](CCCNC(N)=O)NC(=O)[C@H](Cc5ccc(O)cc5)NC4=O)C3=O)cc(c2)CSC[C@@H](C(=O)O)NC(=O)[C@H](Cc2ccccc2)NC(=O)[C@H](CCC(N)=O)NC(=O)C([C@@H](C)O)NC(=O)[C@@H]2CCCN2C(=O)[C@@H]2CCCN2C1=O (single isomer, unassigned) [^68Ga-SDYD02, metal not drawn] | quite stable in PBS buffer | ≥ 10 | ≥ 10 | significant radioactive uptake in the tumor sites | – | – | – | – | – | – | – | –
2 | CC(C)CC(CC(C)C)NC(=O)[C@H](Cc1cnc[nH]1)NC(=O)CNC(=O)C(NC(=O)[C@H](C)NC(=O)[C@H](Cc1c[nH]c2ccccc12)NC(=O)[C@H](CCC(N)=O)NC(=O)[C@@H](Cc1ccccc1)NC(=O)COCC(=O)Nc1ccc(CNC(=O)COCCOCCNC(=O)COCCOCCNC(=O)[C@H](CCCCNC(=O)CN2CCN(CC(=O)O)CCN(CC(=O)O)CCN(CC(=O)O)CC2)NC(=O)CCC(=O)N2CCN(CCCOc3ccc4nccc(C(=O)NCC(=O)N5CC(F)(F)C[C@H]5C#N)c4c3)CC2)cc1)C(C)C (single isomer, unassigned) [^68Ga-SDYD03, metal not drawn] | – | – | – | – | quite stable in PBS buffer | ≥ 10 | ≥ 10 | significant radioactive uptake in the tumor sites | – | – | – | –
3 | CCCCCC(=O)N[C@@H]1CSCc2cc(CSCCNC(=O)COCCOCCNC(=O)COCCOCCNC(=O)CSC3CC(=O)N(CCC(=O)N[C@H](CCCCNC(=O)CN4CCN(CC(=O)O)CCN(CC(=O)O)CCN(CC(=O)O)CC4)C(=O)NCc4ccc(C(=O)NCCC[C@@H]5C(=O)N[C@@H](CCCNC(=N)N)C(=O)N[C@@H](Cc6ccc7ccccc7c6)C(=O)NCC(=O)N[C@H](Cc6ccc(O)cc6)C(=O)N5C)cc4)C3=O)cc(c2)CSC[C@@H](C(=O)O)NC(=O)[C@H](Cc2ccccc2)NC(=O)[C@H](CCC(N)=O)NC(=O)C([C@@H](C)O)NC(=O)[C@@H]2CCCN2C(=O)[C@@H]2CCCN2C1=O (single isomer, unassigned) [^68Ga-SDYD06, metal not drawn] | quite stable in PBS buffer | ≥ 10 | ≥ 10 | significant radioactive uptake in the tumor sites | – | – | – | – | – | – | – | –
4 | N#C[C@@H]1CC(F)(F)CN1C(=O)CNC(=O)c1ccnc2ccc(OCCCN3CCN(C(=O)[C@H](CCCCNC(=O)CCN4C(=O)CC(SCC(=O)NCCOCCOCCOCCOCCC(=O)NCCCC[C@@H]5NC(=O)[C@@H](Cc6ccc(O)cc6)NC(=O)[C@H](CC(=O)O)NC(=O)CNC(=O)[C@H](CCCNC(=N)N)NC5=O)C4=O)NC(=O)CCC(C(=O)O)N4CCN(CC(=O)O)CCN(CC(=O)O)CCN(CC(=O)O)CC4)CC3)cc12 (single isomer, unassigned) [^68Ga-SDYD07, metal not drawn] | quite stable in PBS buffer | ≥ 10 | ≥ 10 | significant radioactive uptake in the tumor sites | – | – | – | – | ~10 | significantly reduced at 60 minutes | significantly increased target/non-target ratios | higher tumor uptake and longer tumor retention time
5 | CCCCCC(=O)N[C@H]1CSCc2cc(CSCCNC(=O)[C@H](CCCCNC(=O)CCN3C(=O)CC(SCC(=O)NCCOCCOCCOCCOCCC(=O)NCCCC[C@@H]4NC(=O)[C@@H](Cc5ccc(O)cc5)NC(=O)[C@H](CC(=O)O)NC(=O)CNC(=O)[C@H](CCCNC(=N)N)NC4=O)C3=O)NC(=O)CCC(C(=O)O)N3CCN(CC(=O)O)CCN(CC(=O)O)CCN(CC(=O)O)CC3)cc(c2)CSC[C@@H](C(=O)O)NC(=O)[C@H](Cc2ccccc2)NC(=O)[C@H](CCC(N)=O)NC(=O)C([C@@H](C)O)NC(=O)[C@@H]2CCCN2C(=O)[C@@H]2CCCN2C1=O (single isomer, unassigned) [^68Ga-SDYD08, metal not drawn] | quite stable in PBS buffer | ≥ 10 | ≥ 10 | significant radioactive uptake in the tumor sites | – | – | – | – | – | – | – | –

Reference: patent US20260069728A1, “MULTI-TARGETING COMPOUND AND USE THEREOF” (Chengdu Shetai Medical Technology Co., Ltd., priority 2023, published 2026)
